Data on two substances can be found in patent US20080199896.

The target of data set [1] is GST-TSC2 fragment 2 (amino acids 1357-1765) (UniProt P49816).
The target in data set [2] is GST-TSC2 fragment 1 (amino acids 910-1112) (UniProt P49816).
Data set [3] deals with TSC2 fragment containing S1345 (UniProt P49816).
For data set [4], the target named is purified TSC2-F2 fragment (AMPK assay, contains T1227) (UniProt P49816).

Turning to GST-Akt (wild type), the “in vitro phosphorylation by purified kinase” value in data set [1] was “Wild-type Akt, but not the kinase-inactive Akt-KM mutant, efficiently phosphorylated both fragment 1 and fragment 2 of TSC2 in vitro”; in data set [2], “Wild-type Akt, but not the kinase-inactive Akt-KM mutant, efficiently phosphorylated both fragment 1 and fragment 2 of TSC2 in vitro”.
“immunoprecipitated AMPK (in vitro kinase assay)”: the “in vitro phosphorylation by immunoprecipitated kinase” value is “The TSC2 fragment was phosphorylated by immunoprecipitated AMPK, but not the kinase inactive AMPK mutant” in data set [3] and “In vitro phosphorylation of the purified TSC2-F2 fragment by immunoprecipitated AMPK showed that AMPK specifically phosphorylates TSC2 on T1227” in data set [4].
